Reference: patent US8834890B2, “Siderophore conjugate immunogenic compositions and vaccines” (University of Florida Research Foundation, Inc., priority 2009, dated 2014)

Legend:
[1] = Iron clearance in non-iron-overloaded, bile-duct cannulated rats; type: in vivo, Sprague-Dawley rats; details: 75 μmol/kg s.c.
Protocol: To support this idea, bile duct-cannulated rats were given vibriobactin (3) subcutaneously (s.c.) at a dose of 75 μmol/kg. The rodents' bile and urine were collected for 48 h to determine if vibriobactin sequestered and promoted the excretion of iron. The iron content of the bile and urine were determined using atomic absorption spectroscopy. This model has been used for many years to evaluate the efficiency with which iron chelators promote the excretion of iron from animals [Bergeron, R. J.; Streiff, R. R.; Creary, E. A.; Daniels, R. D., Jr.; King, W.; Luchetta, G.; Wiegand, J.; Moerker, T.; Peter, H. H. A Comparative Study of the Iron-Clearing Properties of Desferrithiocin Analogues with Desferrioxamine B in a Cebus Monkey Model. Blood 1993, 81, 2166-2173 and Bergeron, R. J.; Streiff, R. R.; Wiegand, J.; Vinson, J. R. T.; Luchetta, G.; Evans, K. M.; Peter, H.; Jenny, H.-B. A Comparative Evaluation of Iron Clearance Models. […]
Four rats were subjected to bile duct-cannulation as previously described. […] The iron content of the bile and urine were assessed by atomic absorption spectroscopy. Iron clearing efficiency was calculated as set forth elsewhere [Bergeron, R. J.; Wiegand, J.; McManis, J. S.; McCosar, B. H.; Weimar, W. R.; Brittenham, G. M.; Smith, R. E. Effects of C-4 Stereochemistry and C-4′ Hydroxylation on the Iron Clearing Efficiency and Toxicity of Desferrithiocin Analogues. […]

BSA-VIB antigen [2] = assay: Competitive binding ELISA of purified monoclonal antibodies
Sequence of BSA-VIB antigen (P02769 25-607): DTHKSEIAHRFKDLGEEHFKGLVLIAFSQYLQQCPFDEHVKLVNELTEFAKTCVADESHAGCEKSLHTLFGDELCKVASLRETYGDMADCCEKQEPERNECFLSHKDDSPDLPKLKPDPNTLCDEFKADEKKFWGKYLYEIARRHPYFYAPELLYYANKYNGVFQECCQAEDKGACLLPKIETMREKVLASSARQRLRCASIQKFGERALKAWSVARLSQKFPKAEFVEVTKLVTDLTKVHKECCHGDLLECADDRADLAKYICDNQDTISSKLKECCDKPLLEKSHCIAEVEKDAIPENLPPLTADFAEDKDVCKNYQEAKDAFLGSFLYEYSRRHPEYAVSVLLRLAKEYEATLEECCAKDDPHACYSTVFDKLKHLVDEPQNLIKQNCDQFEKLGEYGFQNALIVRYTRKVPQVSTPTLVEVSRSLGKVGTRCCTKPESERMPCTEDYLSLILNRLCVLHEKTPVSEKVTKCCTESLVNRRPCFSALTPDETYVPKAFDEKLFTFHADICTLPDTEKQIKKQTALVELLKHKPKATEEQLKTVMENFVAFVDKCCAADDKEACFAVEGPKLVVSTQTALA
Protocol: Competitive binding ELISA studies using the purified mAb were conducted. The mAb were first incubated with varying concentrations of the OVA-VIB antigen, from 0-250 μg/mL, prior to being transferred to an ELISA plate that had been coated with the BSA-VIB antigen.
In brief, the polypropylene incubation plate was blocked with 300 μL of blocking buffer (1% BSA in PBS with 0.02% azide) and was allowed to incubate overnight at 4° C. The following day, the blocking buffer was removed (flicked) from the plate, and the plate was blotted on a paper towel. A 96-well ELISA plate was coated with the BSA-VIB antigen (10 μg/mL, 50 μL/well) that had been diluted in PBS with 0.02% azide. After incubating overnight at 4° C., the plate was washed 4 times (300 μL/wash) as described above, blocked with 300 μL of blocking buffer for 1 h, and washed again. […]

BSA-VIB antigen [3] = assay: Competitive binding ELISA of polyclonal serum from immunized mice
Protocol: In the competitive binding ELISA, sera from immunized mice or non-immunized mice were first incubated with potential antigens f-g, or with OVA-VIB, at antigen concentrations ranging from 0-250 μg/mL. If an antigen is an effective competitor, it will bind to the antibody during this initial incubation, leaving less antibody available to bind to a second antigen coated on the ELISA plate. This “competition” will be reflected in lower p-nitrophenol optical density values.
Competitive binding ELISAs were performed on 1) serum from immunized mice that contained polyclonal antibodies, and 2) purified mAb derived from the cloning of 5A6-2D5 and 2F10-1A9. Medium was used as a negative control, while unconjugated OVA (10 μg/mL, 50 μL/well) served as a […] for the competitive binding ELISA of the polyclonal serum (Table 2) and purified mAb (Table 6). Two types of plates were utilized: a conical bottom polypropylene plate was used for the incubation of the antibody-antigen mixture, whereas a 96-well MAXISORP plate (a high protein-binding capacity polystyrene multi-well ELISA plate) was used for the ELISA.
In brief, the polypropylene incubation plate was blocked with 300 μL of blocking buffer (1% BSA in PBS with 0.02% azide) and was allowed to incubate overnight at 4° C. The following day, the blocking buffer was removed (flicked) from the plate, and the plate was blotted on a paper towel. A 96-well ELISA plate was coated with the BSA-VIB antigen (10 μg/mL, 50 μL/well) that had been diluted in PBS with 0.02% azide. After incubating overnight at 4° C., the plate was washed 4 times (300 μL/wash) as described above, blocked with 300 μL of blocking buffer for 1 h, and washed again.
The OVA-VIB antigen was diluted in blocking buffer in micro centrifuge tubes at antigen concentrations ranging from 0-250 μg/mL. The diluted antigens (50 μL/well) were transferred from the micro centrifuge tubes to the polypropylene incubation plate that had been blocked and washed. Fifty microliters of the diluted polyclonal mouse serum (1:10,000 dilution) or mAb (0.11 μg protein/mL) were added to the incubation plate wells containing the diluted OVA-VIB antigen. The polypropylene plate was then incubated on a rocking platform for 2 h at room temperature, allowing time for the antigen-antibody complexes to form.
A portion of the antigen/antibody mixture (50 μL) was transferred from the polypropylene incubation plate to the BSA-VIB-coated ELISA plate that had been blocked and washed. The ELISA plate was incubated with gentle agitation for 1 h at room temperature and was washed 4 times with the EWB. […] The ELISA plate was allowed to incubate with gentle agitation for 1 h at room temperature and was read at 405 nm, tracking the OD of the yellow water-soluble product, p-nitrophenol. […]

[4] = against the BSA-VIB antigen, 10 μg/mL

Molecule | iron sequestration in vivo (in words) [1] | iron clearing efficiency ([1]; bile and urine collected 48 h) [%] | optical density of mAb incubated with OVA greater than mAb first incubated with OVA-VIB at the same concentration (BSA-VIB antigen [2]; [4]) | effectiveness as competitor (in words) (BSA-VIB antigen [2]; purified mAb, antigen 0-250 μg/mL) | BSA-VIB Antigen: Optical Density at 405 nm (BSA-VIB antigen [3]; M1 serum 1:10,000 incubated with unconjugated OVA 10 μg/mL) | BSA-VIB Antigen: Optical Density at 405 nm (BSA-VIB antigen [3]; M2 serum 1:10,000 incubated with unconjugated OVA 10 μg/mL) | optical density of serum incubated with OVA greater than serum first incubated with OVA-VIB at the same concentration (BSA-VIB antigen [3]; [4]) [%] | effectiveness as competitor (in words) (BSA-VIB antigen [3]; sera from immunized mice, antigen 0-250 μg/mL)
CC1OC(c2cccc(O)c2O)=NC1C(=O)NCCCN(CCCNC(=O)c1cccc(O)c1O)C(=O)C1N=C(c2cccc(O)c2O)OC1C (centres unmarked) [Compound 3, vibriobactin] | found to sequester iron in vivo | 4.3±1.1 | – | – | – | – | – | –
OVA: unconjugated ovalbumin, control in the competitive binding ELISA (protein, UniProt P01012 2-386, looked up) Ovalbumin: GSIGAASMEFCFDVFKELKVHHANENIFYCPIAIMSALAMVYLGAKDSTRTQINKVVRFDKLPGFGDSIEAQCGTSVNVHSSLRDILNQITKPNDVYSFSLASRLYAEERYPILPEYLQCVKELYRGGLEPINFQTAADQARELINSWVESQTNGIIRNVLQPSSVDSQTAMVLVNAIVFKGLWEKAFKDEDTQAMPFRVTEQESKPVQMMYQIGLFRVASMASEKMKILELPFASGTMSMLVLLPDEVSGLEQLESIINFEKLTEWTSSNVMEERKIKVYLPRMKMEEKYNLTSVLMAMGITDVFSSSANLSGISSAESLKISQAVHAAHAEINEAGREVVGSAEAGVDAASVSEEFRADHPFLFCIKHIATNAVLFFGRCVSP | – | – | approximately 90% | not an effective competitor | 1.152 | 1.655 | 92 | not an effective competitor
